Biological target: the molecule itself
Test: cryo-EM structure; 30 uM ParM in polymerisation buffer (30 mM Tris-HCl, 25 mM KCl, 2 mM MgCl2, 1 mM DTT, pH 7.5) with 5 mM AMPPNP, 5 min at room temperature; filaments spun down and resuspended; helical reconstruction at 8.5 Å

B1: ParM (actin-like protein of the ParMRC system of Escherichia coli R1 plasmid), wild type (natural protein)
chain: MLVFIDDGSTNIKLQWQESDGTIKQHISPNSFKREWAVSFGDKKVFNYTLNGEQYSFDPISPDAVVTTNIAWQYSDVNVVAVHHALLTSGLPVSEVDIVCTLPLTEYYDRNNQPNTENIERKKANFRKKITLNGGDTFTIKDVKVMPESIPAGYEVLQELDELDSLLIIDLGGTTLDISQVMGKLSGISKIYGDSSLGVSLVTSAVKDALSLARTKGSSYLADDIIIHRKDNNYLKQRINDENKISIVTEAMNEALRKLEQRVLNTLNEFSGYTHVMVIGGGAELICDAVKKHTQIRDERFFKTNNSQYDLVNGMYLIGN
notes: ParM, plasmid segregation protein of actin fold, encoded by Escherichia coli R1 plasmid; Forms double-helical filaments of two protofilaments with AMPPNP or ATP; also called ParM protein; wild type protein; source: E. coli BL21-AI, plasmid pJSC1, in cell lysate for the polymerisation assay
- binding result: binds

— publication PMC3794156, “Structure of the ParM filament at 8.5 Å resolution” (Journal of Structural Biology, 2013)
